# According to the supplement of paper PMC9170038:
# Test system: MS2 coat protein
# Test: apparent KD of MS2 coat protein; higher = weaker reporter binding
# Settings: Eterna round: R107; input ligand: arginine 13.2 mM
# Procedure, shortened: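 Normalised binding curves from single clusters were fitted, and the median fit for each design is given as apparent KD. The clusters held designed RNA switches transcribed on-chip from Illumina sequencing clusters. These were titrated with SNAP-549-labelled MS2 coat protein (twofold steps from 0.7 or 1.5 nM to 3 µM, 0.8–1.5 h to 10–20 min per step) in 100 mM Tris-HCl pH 7.5, 80 mM KCl, 4 mM MgCl2, without or with constant ligand.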
row,Sequence,apparent KD of MS2 coat protein [µM]
1,ACCUGCGUUUGAUAAAAUCAGACGCAGGUUCGAGGACCGGUACGGCCGCCACUCGGACAUGAGGAUCACCCAUGUUUGACAUGGG [#05 Exclusion Tryptophan A],0.168
2,GCACAAGAUGGAAGGAGCGCUGGUAGGUGACACAUGAGGAUCACCCAUGUGCUCCUUGCCGAGCAGGUAGGUCGCCAUCUUGUGC [SSAB NP+V+V2 #7],0.0211
3,UGCCUAGACGUGGAUUACCCGUGUACCGAAGGAGCGCCCGAAAGGGCAGGUAGGUCGCGGAGGACAUGAGGAUCACCCAUGUUUA,0.0319
4,ACUUUGUCGGGUGAUACCAGCCUCGGCACAUCUCGUGCCGAACAUGAGGAUCACCCAUGUGGCCCUUGGCAGCACAUGACAACUC [Quceanteri],0.145
5,AUAACUGUAAUAAACCGCAGGCUAGUGGAAGGAGCGCGGAAUAACGCAGGUAGGUCGCCACAAACUUGAGGAUCACCCAGGUGGC [SSAA NP+V+V2 #7 Diff Apt],0.0381
6,AAUAACAUGAGGAUCACCCAUGUAAAAGAUACCAGAGUGAUGAUCCUCCCUUGGCAGCUUAAAACGCUAUUGGAAACAAUAGCGA [Mat - Same State Theophlline A - Mod of Eli - D5],0.0488
7,AAAAUCCUACCUGAGGAUCACCCUGGUGAAGGAGCGCCCGAAAGGGCAGGUAGGUCGCACCUGAGGAUCACCCUGGUAAACCUAA [ArgEX 24 #DoubleMS2 #OpenEnded],0.0316
8,CGGGUUCGGGCGGCCGCCACUAUGAUUAGGUGUGGGUGUGUUGUGUUACAUGAGGAUCACCCAUGUAGGACCGGGUUUGGGCUUG [Sturgeon],0.0334
9,UGUAACAUGAGGAUCACCCAUGUAAGUGAUACCAGAUAAGUAGUAGUCCCUUGGCAGCAUAUUGGGAAAGUGUAUAGUCUAUAUU [Same State - Theophylline A (Freestyle 3)],0.0436
10,GCUAGGUCAUCGGCCGCCACUAACGAUGGCUCCGACAUGAGGAUCACCCAUGUGCCACAUGCGCAUAGGACCGGGAUGACCUAGC [SSTB NP+V+V2 #2],0.0168
11,CUAUAAGUAGCGGCCGCCACUUACUCAUGAGGUAACAACAUGAGGAUCACCCAUGUUUGAGGAUCAAGGACCGGGCUAUUUAUAG [AstrosSSTryB#9],0.0247
12,AUUCAUGGAAACAUGACAUACAUAACCGGUCGAGGACCGGUACGGCCGCCACUCGGUUGGUGGCACAUGAGGAUCACCCAUGUUA [SS Tryp A #10],0.0217
13,GGCACAUAGUCGGCCGCCACUAGUGGGAAAUGGGAGAACAUGAGGAUCACCCAUGUUGCGUAGCCUAGGACCGGGACUAUGUGCC [Hippopotamus],0.0291
14,ACAUGAGGAUCACCCAUGUUCCUCAUUGAUACCAGUGAAAGAAGACGCCCUUGGCAGCGAGAAGAAGAAGAAGAAGUUUUUUUUU [6.B],0.209
15,UCGGGCAGAGCGGCCGCCACUGUUUGGCAUGCGGAUGAAGGAACAUGAGGAUCACCCAUGUAGAUUAGGACCGGGCUUUCGGAGA [cctchmullin],0.0193
16,UGUAUGUGAUCUGAUACCAGCUAGCGGAAACGCAGCUUGAGGAUCACCCAAGUGGAAAUAAGCCCUUGGCAGCAGAUCGCAUACU [Denovo 6 #StaticStem #AlternativeMS2],0.0997
17,AUAGUUAUCAGAAGGAGCGUCAUUAACAUGAGGAUCACCCAUGUAACAUUGAAUUCGAUGAGACAGGUAGGUCGCUGAAUAUUAA [SS-ArgB28],0.0323
18,UAUGUGAUAGUCGUACUCUCACACUGAGAAGGAGCGCGAUAGUUCGCAGGUAGGUCGCUCAGUUAUACAUGAGGAUCACCCAUGU [Isrice],0.0253
19,AGAAUAUAGUCGGCCGCCACUCUACAUACAUGAGGAUCACCCAUGUUUACAUAGUGAAUAUACAUGAGGACCGGGACAUAGGCAU [JR_SSTryptoB_Sub020],0.0216

row,Sequence,apparent KD of MS2 coat protein [µM]
1,ACCUCACUCUCUGAUACCAGCUAACAACAUGAGGAUCACCCAUGUCAGACUUGUAUUGAUAGCCCUUGGCAGCAGAGGUAACUGC [#16 Exclusion-TheophyllineB],0.0139
2,AAACGCCACGGAAGGAGCGACAUGAGGAUCACCCAUGUAGACGUGGCGGAUGCACCCUCCUGUCAGGUAGGUCGCCGUGCGCCAA [Engebite],0.0109
3,AUAAGCUGUACCGGAAUAUCCUCAUGUAUACGAGGACCGGUACGGCCGCCACUCGAUAACAUGAGGAUCACCCAUGUAAUAAUAA [|T'-M'-Trp-Ms2|_Design20],0.0142
4,CAAAAUUUAACGGCCGCCACUUACUCAUGAGGUAACAACAUGAGGAUCACCCAUGUUUGAGGAUCAAGGACCGGGUUAAAUUUUG [AstrosSSTry#20],0.0266
5,GUUGGUUUGCGAAGGAGCGGGUAUGUUGUCUACUGGAUCCUAACAUGAGGAUCACCCAUGUCCCAGGUAGGUCGCGCGGGCUUUG [12.aB],0.0341
6,CUACAUUUGUAGAAACCGGUCAACAUUAUUCGAGGACCGGUACGGCCGCCACUCGUAUAUUUUUAUACAUGAGGAUCACCCAUGU [Tryptophan A 7],0.0144
7,GGGCCUGUAGGCAGGCCCACAGCGGGUGAUACCAGCAAUAAAACUUGCCCUUGGCAGCACACAGCUACAUGAGGAUCACCCAUGU [Ismaorxe],0.0449
8,AUGGUCGACGAUCUGCGAAAAGCAGAUCGACGAGGACCGGUACGGCCGCCACUCGUGUUUAUUUAACAUGAGGAUCACCCAUGUA [#14Tryptophan A Same State],0.0706
9,GUCUCUGAGAGAAGGAGCGUGAAGACAUGAGGAUCACCCAUGUAGAGGCGCCGACGGCGUUCGCAGGUAGGUCGCUCUCAGAGAC [#1 Same State - Arginine B Attempt #19 (HarryS)],0.0384
10,GGCACAUAGUCGGCCGCCACUAGGCUGUAGUGGGAGGACAUGAGGAUCACCCAUGUAUUUGGUACUAGGACCGGGACUAUGUGCC [Lion],0.0623
11,CUCAUCCACGCGGCCGCCACUAUUUUUAGGUGUGGGUGUGACGUAUUACAUGAGGAUCACCCAUGUAGGACCGGGCGUGGAUGAG [Walrus],0.117
12,UGGCGAGAAGGAAGGAGCGUCAGCUGAGUCACAUGAGGAUCACCCAUGUAGCACAUAGUGUGACAGGUAGGUCGCCUUCUGCCCU [SS-ArgB17],0.0135
13,UAGACGGCCGGAAGGAGCGGUACAUGAGGAUCACCCAUGUACCUCUGGGCAUCCGUAGUGUGCCAGGUAGGUCGCCGGUUGCGGG [Tebecela],0.0126
14,AGAUCGCUGACCGCGGGAGAUGCGCAGGAUACCAGCCUAAUGUCCGGCCCUUGGCAGCCUGUAACAUGAGGAUCACCCAUGUGAA [theeternabot_exclusion_MS2_Theo_A_29],0.015
15,AGUCUUAUAGGAAGGAGCGCAUACUUCACAUGAGGAUCACCCAUGUCAAGACGUGAGUCAAUGCAGGUAGGUCGCCUAACUAAGA [Same State - Arginine B (Freestyle 12)],0.018
16,GGACUAACCAGAAGGAGCGGCGCGCAGAAACUGCAAAUUCCUCCGCACGAGGAUCACCCGUGUCAGGUAGGUCGCUGGUUAGUCG [ArgBX 28],0.0142
17,AAGGCUACGACCGAUACCAGUAGACGGCAUUCGUAGGAGAACAUGAGGAUCACCCAUGUCUACCCUUGGCAGCGGAAAAUACACU [theeternabot_exclusion_MS2_Theo_B_16],0.0111
18,CGGUAUGGGACGGCCGCCACUAUUAUGUAACAAAAUAAACAUGAGGAUCACCCAUGUACAUGGGAUAGGACCGGGUCCUAUAGCG [#23 Same State - Tryptophan B],0.0198
19,AAUAACAUGAGGAUCACCCAUGUAAAAGAUACCAGAUGCAUGAUGAUCCCUUGGCAGCUUAAACGCGAUUGGAAACAAUCGCGAA [Mat - Same State Theophlline A - Mod of Eli - D11],0.0371
